Measured values taken from PMC4278837, “A Cyclic Peptidic Serine Protease Inhibitor: Increasing Affinity by Increasing Peptide Flexibility” (PLoS ONE, 2014).
Bridge positions count the residues as written; N and C are the ends. Ends that are not written are not given here.

What was measured:
Assay in all cases: enzyme inhibition (steady state, chromogenic substrate S-2444); about 2 nM enzyme (purified or conditioned medium of transfected cells) pre-incubated 15 min with varied peptide in HBS (10 mM HEPES pH 7.4, 140 mM NaCl) with 0.1% BSA at 37°C; substrate about KM; fit for competitive inhibition; highest peptide concentration 400 µM
muPA-Y99A (murine) = target: muPA-Y99A (murine)
muPA-S190A (murine) = target: muPA-S190A (murine)
muPA-V213T (murine) = target: muPA-V213T (murine)
muPA-K41A (murine) = target: muPA-K41A (murine)
muPA-K143A (murine) = target: muPA-K143A (murine)

Ki (muPA-Y99A (murine)) [µM] | Ki (muPA-S190A (murine)) [µM] | Ki (muPA-V213T (murine)) [µM] | Ki (muPA-K41A (murine)) [µM] | Ki (muPA-K143A (murine)) [µM] | Binder
27.2 | 3.02 | 0.373 | 0.27 | 4.34 | CPAYSRYLAC (disulfide 1-10 (inferred)) [Mupain-1 D9A]
26 | 1.6 | 0.246 | 4.29 | 4.88 | CPAYSRYLDC (disulfide 1-10 (inferred)) [mupain-1]
